The target in one data set is biotinylated CD33 (UniProt P20138 18-259, biotinylated (site not stated)). The data set is described as follows: ELISA: fusion protein captured on FMC63, biotinylated CD33, HRP-SA.
Data set [1] has as its target T1, CD33 on U937 cells (UniProt P20138 18-364, limits assumed).
T1 construct: whole, on cells
The data set is described as follows: flow cytometry on U937 cells (cell line per paragraph 272), purified fusion protein, detection with FMC63-PE, % Binding; the cells carry both CLEC12A and CD33, the value is for the whole cell and is not split between the two antigens.

For data set [2], the target named is T2, CLL-1 (CLEC12A) on CLL-1 positive cell lines (U937, OCI-AML-5) (human, UniProt Q5QGZ9 1-265).
T2 construct: whole, on cells; also called MICL
T2 sequence: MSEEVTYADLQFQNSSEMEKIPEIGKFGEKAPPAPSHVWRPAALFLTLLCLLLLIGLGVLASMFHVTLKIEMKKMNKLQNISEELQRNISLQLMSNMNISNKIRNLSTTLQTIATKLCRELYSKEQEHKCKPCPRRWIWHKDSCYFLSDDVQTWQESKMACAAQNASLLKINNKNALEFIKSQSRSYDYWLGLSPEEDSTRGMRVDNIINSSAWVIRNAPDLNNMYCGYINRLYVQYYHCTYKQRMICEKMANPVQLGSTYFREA
The description is as above.

The target of data set [3] is T1, CD33 on U937 cells. The data set is described as follows: flow cytometry on U937 cells (cell line per paragraph 272), purified fusion protein, detection with FMC63-PE, % Binding.
Data set [4] concerns the target T2, CLL-1 (CLEC12A) on CLL-1 positive cell …. Briefly: cell-based or functional assay.
The target is the same in data set [5]. The data set is described as follows: flow cytometry on CLL-1 positive U937 cells, FMC63-PE detection.
Data set [6] concerns the target CLEC12A. The data set is described as follows: ELISA binding of fusion proteins (FMC63 coat, HRP-anti-His detection). On the set-up: species or system human. The note with it: purified fusion protein, FMC63 coat; read-out: CLEC12A binding (ELISA EC50). How it is done: The binding of the biparatopic fusion proteins to CLEC12A was also examined by ELISA. […] The plate was left to incubate overnight at 4° C. The coated plate was blocked with TBS/0.3% nonfat dry milk (NFD) for 60 minutes at RT.

For the next data set, the system named is FMC63. Briefly: CD19 variant binding to anti-CD19 antibody FMC63 (score). The following applies: Table 1B, CD19 triple mutants.
Data set [7] concerns the target T3, CLEC12A (Homo sapiens, UniProt Q5QGZ9, K244Q).
T3 sequence (Q5QGZ9 65-265 K244Q): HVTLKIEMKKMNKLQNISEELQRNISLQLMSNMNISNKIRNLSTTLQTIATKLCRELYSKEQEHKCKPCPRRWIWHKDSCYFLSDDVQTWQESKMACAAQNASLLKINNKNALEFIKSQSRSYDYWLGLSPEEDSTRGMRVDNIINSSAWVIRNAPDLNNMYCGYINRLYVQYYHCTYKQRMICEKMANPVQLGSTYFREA
The data set is described as follows: ELISA of fusion proteins, FMC63 coat, biotinylated CLEC12A detection. Format: binding.

The target of a further data set is CD33 (Homo sapiens, UniProt P20138). The data set is described as follows: ELISA of fusion proteins, FMC63 coat, biotinylated CD33 detection. It counts as binding. The following applies: ELISA, FMC63 coat, biotinylated CD33. The method, then: ELISAs for binding to CD19, CLEC12A and CD33 were run using purified fusion proteins #330, #410 and #440. A 96 well plate was coated with 1.0 μg/ml FMC63 (Novus) in 0.1 M carbonate, pH 9.5 overnight at 4° C. The plate was blocked with 0.3% non-fat milk in TBS for 1 hour at room temperature. After washing in TBST (0.1 M Tris, 0.5 M NaCl, 0.05% Tween20) 3 times, the fusion protein supernatant was titrated using 3-fold dilutions in 1% BSA in TBS and incubated 1 hour at room temperature. For detection by anti-His, after washing 3 times in TBST, HRP-anti-His (BioLegend) was added at 1:2000. The plate was incubated at room temperature in the dark for 1 hour. For detection of binding to CLEC12A, biotinylated CLEC12A was added at 0.5 μg/ml and incubated for 1 hour. This was followed by adding HRP-SA (Pierce) at 1:2000 and incubated at room temperature in the dark for 1 hour. For testing binding to CD33, biotinylated CD33 was added at 0.5 μg/ml and incubated for 1 hour. This was followed by adding HRP-SA (Pierce) at 1:2000 and incubated at room temperature in the dark for 1 hour. Then, 1-Step Ultra TMB-ELISA (Thermo Fisher) solution, was added and the plate read at […]. Curves were fit using a four-parameter logistic (4 PL) regression to calculate the EC50.

A further data set relates to Molm14 cells. Briefly: CAR-CD19 T cell cytotoxicity bridged by purified fusion protein, luciferase Molm14 cells. It counts as cell-based. The note with it: FIG. 21A. How it is done: To test cytoxicity, luciferase labeled Molm14 or U937 cells were targeted for cytotoxic killing using a CAR19 T cell preparation and the purified proteins #330, #410 and #440 added in a dose titration. 1×10^4 target cells were added to each well (96 clear round bottom plate) in RPMI medium. The protein titration was started at 180 ng/ml with 3-fold serial titration into corresponding wells (25 μl per well). CAR-CD19 T cells were added at various E:T ratios to the target cells. After 48 hours the plate was centrifuged (450 RCF for 5 minutes) and the cells were washed 1× with PBS then centrifuged a second time. 20 μl lysis buffer was added into each well. The cell lysate was transferred to a 96 opaque white plate. The plates were read in a luminometer with an injector (Glomax Multi Detection System, Promega). The percent killing was calculated based upon the average loss of luminescence of the experimental vs the control (target cell only or target cell plus fusion protein only).

“And” between values parts separate entries of the source, which are not always exact repeats. Equal values may be shown once.

B1: anti-CD33 scFv-anti-CLL VHH (2H3)-CD19 variant (construct #440) (other)
chain: QVQLVQSGAEVKKPGESVKVSCKASGYTFTNYGMNWVKQAPGQGLEWMGWINTYTGEPTYADKFQGRVTMTTDTSTSTAYMEIRNLGGDDTAVYYCARWSWSDGYYVYFDYWGQGTSVTVSSGGGGSGGGGSGGGGSDIVMTQSPDSLTVSLGERTTINCKSSQSVLDSSTNKNSLAWYQQKPGQPPKLLLSWASTRESGIPDRFSGSGSGTDFTLTIDSPQPEDSATYYCQQSAHFPITFGQGTRLEIKGGGGSGGGGSGGGGSGGGGSQVQLQESGGGLVQAGGSLRLSCVASGSIRSINVMGWYRQAPGKQRELVAACASDGNTYYADSVKGRFTISRDNAEKTVYLQMNNLKPDDTAVYYCDANSRGNYYSGQGTQVTVSSTSGPGGQGAGGGGSGGGGSGGGGSGGGGSPEEPLVVKVEEGDTAALWCLKGTSDGPTQQLTWSRESPLKPFLKYSLGVPGLGVHVRPDAISVVIRNVSQQMGGFYLCQPGPPSEKAWQPGWTVNVEGSGELFRWNVSDLGGLGCGLKNRSSEGPSSPSGKLMSPKLYVWAKDRPEIWEGEPPCLPPRDSLNQSLSRDLTVAPGSTLWLSCGVPPDSVSRGPLSWTHVHPKGPKSLLSLELKDDRPARDMWVMGTSLMLPRATAQDAGKWYCHRGNLTMSFHLEITARPSRHHHHHH
As for B1, the EC50 in the data set with biotinylated CD33 was 0.0021 µg/mL and 0.0292 nM; with CD33 on U937 cells [1] it was 0.00796 µg/mL and 0.111 nM; in data set [2], 0.00796 µg/mL and 0.111 nM.

B2: anti-CD33 scFv-variant CD19-His (construct #410) (other)
chain: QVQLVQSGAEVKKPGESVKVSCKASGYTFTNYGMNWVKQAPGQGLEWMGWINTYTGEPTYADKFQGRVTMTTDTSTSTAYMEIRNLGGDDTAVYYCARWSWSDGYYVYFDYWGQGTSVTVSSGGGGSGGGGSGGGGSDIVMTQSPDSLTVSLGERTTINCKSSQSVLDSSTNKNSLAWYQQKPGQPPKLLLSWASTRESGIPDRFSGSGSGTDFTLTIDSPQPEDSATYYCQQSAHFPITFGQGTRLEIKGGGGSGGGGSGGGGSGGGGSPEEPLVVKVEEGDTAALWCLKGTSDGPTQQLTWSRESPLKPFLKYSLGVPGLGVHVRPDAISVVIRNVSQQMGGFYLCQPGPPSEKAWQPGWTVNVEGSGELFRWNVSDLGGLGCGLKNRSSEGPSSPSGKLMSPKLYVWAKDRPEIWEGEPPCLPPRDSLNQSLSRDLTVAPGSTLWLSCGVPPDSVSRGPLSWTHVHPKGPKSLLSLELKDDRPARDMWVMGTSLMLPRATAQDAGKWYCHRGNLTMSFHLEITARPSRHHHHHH
notes: also called anti-CD33 scFv fusion protein
Consider B2, for which the half-maximal effective concentration (EC50) in the data set with biotinylated CD33 was 0.003 µg/mL and 0.0522 nM; in the data set with CD33 on U937 cells [3], 0.0213 µg/mL and 0.37 nM.

B3: CD19 variant-anti-CLL-1 VHH(1B12) (construct #321) (other)
chain: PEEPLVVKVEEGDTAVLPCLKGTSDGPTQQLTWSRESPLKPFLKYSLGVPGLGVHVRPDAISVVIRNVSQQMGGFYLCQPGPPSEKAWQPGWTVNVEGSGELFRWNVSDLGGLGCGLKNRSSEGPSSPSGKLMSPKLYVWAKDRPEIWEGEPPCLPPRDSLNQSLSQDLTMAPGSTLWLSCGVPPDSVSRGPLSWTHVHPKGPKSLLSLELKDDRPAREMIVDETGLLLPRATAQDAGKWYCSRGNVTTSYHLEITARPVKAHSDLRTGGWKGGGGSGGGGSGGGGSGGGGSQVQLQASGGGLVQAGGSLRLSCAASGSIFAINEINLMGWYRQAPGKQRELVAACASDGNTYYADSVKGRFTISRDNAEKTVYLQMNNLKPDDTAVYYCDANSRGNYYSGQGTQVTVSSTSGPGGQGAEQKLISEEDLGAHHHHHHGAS
notes: Fusion of a CD19 variant extracellular domain, linker, anti-CLL-1 VHH 1B12 and myc-His tag
As for B3, the “CLEC12A-cell cytotoxicity (IC50 n = 2-3)” value in data set [4] amounted to 0.027 nM. The molecule further yielded an EC50 in data set [5] of 3 nM.

B4: #321: purified fusion protein of CD19 variant and anti-CLL-1 VHH; SEQ ID NO:303 (protein)
chain: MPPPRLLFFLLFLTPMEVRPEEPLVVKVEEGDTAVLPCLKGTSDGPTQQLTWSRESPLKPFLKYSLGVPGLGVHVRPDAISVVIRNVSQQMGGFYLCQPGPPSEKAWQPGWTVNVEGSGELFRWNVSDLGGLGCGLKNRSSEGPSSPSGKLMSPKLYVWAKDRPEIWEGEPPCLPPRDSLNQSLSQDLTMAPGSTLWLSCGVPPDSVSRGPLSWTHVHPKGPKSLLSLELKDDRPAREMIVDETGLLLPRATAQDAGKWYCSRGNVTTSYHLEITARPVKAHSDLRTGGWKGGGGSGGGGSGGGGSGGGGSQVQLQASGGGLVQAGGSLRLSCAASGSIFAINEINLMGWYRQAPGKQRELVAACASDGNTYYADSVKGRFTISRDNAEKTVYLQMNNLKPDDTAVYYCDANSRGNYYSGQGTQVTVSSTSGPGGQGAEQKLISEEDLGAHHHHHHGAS
As for B4, the EC50 on CLEC12A [6] came to 0.09 nM.

B5: W62S/F64R/F66R: CD19 variant (protein)
chain: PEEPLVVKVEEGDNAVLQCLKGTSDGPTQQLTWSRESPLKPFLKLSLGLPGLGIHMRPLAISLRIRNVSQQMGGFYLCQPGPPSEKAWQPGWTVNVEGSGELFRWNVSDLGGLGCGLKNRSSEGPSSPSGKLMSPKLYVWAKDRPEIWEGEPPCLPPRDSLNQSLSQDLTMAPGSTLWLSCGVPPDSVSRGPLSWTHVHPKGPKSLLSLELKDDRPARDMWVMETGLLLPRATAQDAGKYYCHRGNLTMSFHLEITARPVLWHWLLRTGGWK
As to B5, the “FMC63 Binding Score” value in the data set with FMC63 was 13.7 ± 1.9.

B6: #410: fusion protein containing the CD19 ECD and anti-CD33 scFv; SEQ ID NO:325 (protein)
chain: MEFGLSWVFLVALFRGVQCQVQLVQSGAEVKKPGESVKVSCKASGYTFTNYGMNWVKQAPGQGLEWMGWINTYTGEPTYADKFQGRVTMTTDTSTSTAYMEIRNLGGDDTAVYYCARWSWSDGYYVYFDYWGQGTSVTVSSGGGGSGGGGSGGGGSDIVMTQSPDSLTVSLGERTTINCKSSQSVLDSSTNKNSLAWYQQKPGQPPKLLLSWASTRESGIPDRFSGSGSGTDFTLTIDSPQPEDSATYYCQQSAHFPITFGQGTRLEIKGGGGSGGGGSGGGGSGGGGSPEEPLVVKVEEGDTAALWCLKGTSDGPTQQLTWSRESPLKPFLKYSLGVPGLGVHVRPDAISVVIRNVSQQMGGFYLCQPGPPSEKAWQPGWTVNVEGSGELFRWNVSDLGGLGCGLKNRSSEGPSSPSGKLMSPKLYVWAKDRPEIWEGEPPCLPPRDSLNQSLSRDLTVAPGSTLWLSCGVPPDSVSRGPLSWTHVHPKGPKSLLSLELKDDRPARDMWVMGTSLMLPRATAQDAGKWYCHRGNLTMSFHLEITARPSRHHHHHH
With B6, in the data set with CLEC12A [7], the “CLEC12A binding EC50 pM” value was “∞” and the “CLEC12A binding EC50 ng/ml” value is given as “∞”. Besides, the “CD33 binding EC50” value with CD33 was determined as 3.0 ng/mL. In addition, the “cytotoxicity on Molm14 cells” value in the data set on Molm14 cells is given as “about equipotent”.

For the origin of these results see patent US20220387487A1, “COMPOSITIONS AND METHODS FOR TREATMENT OF CANCER” (Aleta Biotherapeutics Inc., priority 2019, published 2022).
